Like-named read-outs stand apart in the source and are kept apart here. Starred links: 1 amine or outer side, 2 acyl side, 3 side chain; linkers in the order of their positions; H or OH if unused. Positions of bridges follow the written chain, without caps; N, C: chain ends. Non-standard residues stand in square brackets, D forms with d. No end group written: not given here. X1 = 3(R)‑3‑amino‑2‑oxo‑1‑piperidine‑acetic acid, O=C1[C@H](N[*:1])CCCN1CC(=O)[*:2]; NMeL = CN[C@@H](CC(C)C)C(=O)O; Pen = CC(C)(S)[C@H](N)C(=O)O; NMeA = CN[C@@H](C)C(=O)O; Sar = CNCC(=O)O

Assay [1] deals with T1, soluble human FcRn (shFcRn) (human, UniProt P55899 24-297; P61769 21-119, biotinylated with Sulfo-NHS-LC-Biotin in the ELISA; amine-coupled to a CM5 chip in SPR).
T1 construct: also called biotinylated shFcRn
T1 sequence (P55899 24-297 limits assumed, chain 1 of 2): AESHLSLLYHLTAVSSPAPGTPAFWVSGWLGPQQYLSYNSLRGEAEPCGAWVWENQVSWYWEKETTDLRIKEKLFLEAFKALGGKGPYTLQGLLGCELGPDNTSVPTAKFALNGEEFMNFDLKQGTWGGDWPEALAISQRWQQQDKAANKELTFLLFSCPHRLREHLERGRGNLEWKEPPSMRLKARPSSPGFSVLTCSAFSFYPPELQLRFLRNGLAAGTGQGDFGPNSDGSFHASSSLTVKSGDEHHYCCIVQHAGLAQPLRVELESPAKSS
T1 sequence (P61769 21-119 limits assumed, chain 2 of 2): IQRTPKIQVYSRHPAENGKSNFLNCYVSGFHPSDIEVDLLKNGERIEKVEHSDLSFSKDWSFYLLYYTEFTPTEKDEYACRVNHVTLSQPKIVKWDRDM
Nature of the assay: SPR, pH 6; Tyr replaced by NMeTyr (N-methyl scan). Here is the method:
(§1) The following steps were performed to cross-link soluble human or cynomolgus FcRn to the dextran surface of a CM5 sensor chip (Biacore AB, Uppsala, Sweden) by an amine coupling reaction involving 1-ethyl-(3-dimethylaminopropyl)-carbodiimide hydrochloride (EDC) (Biacore AB, Uppsala, Sweden) and N-hydroxysuccinimide (NHS) (Biacore AB, Uppsala, Sweden) as recommended by Biacore (BIAapplications Handbook, version AB, section 4.2, Biacore AB, Uppsala, Sweden). The FcRn protein was diluted in 50 mM sodium acetate, pH 4.5 (Biacore AB, Uppsala, Sweden) to a concentration of 10 to 30 µg/ml and used to coat one flow cell on the sensor chip. Residual sites on the FcRn flow cell were blocked with 1 M ethanolamine hydrochloride pH 8.5 (Biacore AB, Uppsala, Sweden). A control flow cell was blocked with ethanolamine for reference subtraction. For analysis of the monomeric peptides, FcRn was coated to a final density of 4000-5000 response units (RU). For analysis of the peptide dimers, FcRn was coated to a density of 2000-2500 RU. […]
(§2) A. Representative Procedure for the Determination of Binding Constant of Monomeric Peptides Ten 2-fold dilutions of the peptide were injected over the FcRn-CM5 chip at a rate of 20 µl/min for 2 min. […] Sensorgrams were generated and analyzed using BiaEval software version 3.1 (Biacore AB, Uppsala, Sweden). […]
On the technique in general: In SPR one partner is held on a chip, and binding of the other changes the refractive index at the surface.

Assay [2] addresses T1, soluble human FcRn (shFcRn). In words: competition ELISA vs human IgG. Here is the method:
(§3) The wells were coated with 100 μl/well of 1 μg/ml biotinylated-shFcRn in Buffer A. The plate was sealed and incubated at 37° C. for 2 hours. Afterwards, the plate was washed with 200 μl/well of Buffer B (Buffer B: 100 mM MES pH 6, 150 mM NaCl, 0.5% BSA IgG-free (Jackson ImmunoResearch, West Grove, Pa.), 0.05% Tween-20). […] To allow for mixing, the plate was rocked for 2 minutes, sealed and incubated at 37° C. for 2 hours. […] The plate was covered, incubated for 30 minutes at room temperature and washed 4 times with 200 μl/well of ice-cold buffer B. SureBlue TMB substrate solution (100 μl/well, KPL, Gaithersburg, Md.) was added and the plate was allowed to incubate at room temperature until color developed, which took 5 to 10 minutes. Once color developed, 100 μl/well of TMB stop solution (KPL, Gaithersburg, Md.) was added and the absorbance was measured at 450 nm.

Assay [3] has the same target. In words: SPR, pH 6. Here is the method: (§4) The following steps were performed to cross-link soluble human or cynomolgus FcRn to the dextran surface of a CM5 sensor chip (Biacore AB, Uppsala, Sweden) by an amine coupling reaction involving 1-ethyl-(3-dimethylaminopropyl)-carbodiimide hydrochloride (EDC) (Biacore AB, Uppsala, Sweden) and N-hydroxysuccinimide (NHS) (Biacore AB, Uppsala, Sweden) as recommended by Biacore (BIAapplications Handbook, version AB, section 4.2, Biacore AB, Uppsala, Sweden). The FcRn protein was diluted in 50 mM sodium acetate, pH 4.5 (Biacore AB, Uppsala, Sweden) to a concentration of 10 to 30 µg/ml and used to coat one flow cell on the sensor chip. Residual sites on the FcRn flow cell were blocked with 1 M ethanolamine hydrochloride pH 8.5 (Biacore AB, Uppsala, Sweden). A control flow cell was blocked with ethanolamine for reference subtraction. For analysis of the monomeric peptides, FcRn was coated to a final density of 4000-5000 response units (RU). For analysis of the peptide dimers, FcRn was coated to a density of 2000-2500 RU. All SPR measurements were performed using a BIACORE 3000 Instrument (Biacore AB Uppsala, Sweden). For measurements done at either pH 6 or pH 7.4, experiments were performed in 50 mM phosphate, 100 mM sodium chloride, 0.01% surfactant P20 (Biacore AB, Uppsala, Sweden).
(§5) A. Representative Procedure for the Determination of Binding Constant of Monomeric Peptides Ten 2-fold dilutions of the peptide were injected over the FcRn-CM5 chip at a rate of 20 µl/min for 2 min. The peptide was dissociated from the chip for 2.5 minutes with buffer. Any remaining peptide was removed from the chip with a 30 second injection of HBS-P buffer (Biacore AB, Uppsala, Sweden) at a rate of 30 µl/min. Sensorgrams were generated and analyzed using BiaEval software version 3.1 (Biacore AB, Uppsala, Sweden). The equilibrium RU observed for each injection was plotted against concentration. The equilibrium K_D values were derived by analysis of the plots using the steady state affinity model included in the BiaEval software.

Assay [4] shares this target. Nature of the assay: SPR, pH 7.4. Here is the method: as §4, §5
Assay [5] shares this target. In words: competition ELISA vs human IgG. Here is the method: as §3
The source holds these as a separate data set.

For assay [6] the target is unchanged. Nature of the assay: SPR, pH 6. Here is the method:
as §4, §5
This is another data set of the same source.

Assay [7] has the same target. In words: SPR, pH 6. This is another data set of the same source.
The target is the same in assay [8]. In words: competition ELISA vs human IgG. The source holds these as a separate data set. Background: ELISA stands for enzyme-linked immunosorbent assay.
The target is the same in assay [9]. In words: SPR, pH 7.4. Here is the method: as §1, §2
This is another data set of the same source.

Assay [10] has the same target. Nature of the assay: SPR, pH 6; small-letter c (D-cysteine) at first Cys position, no Pen. Here is the method: as §1, §2
Assay [11] has the same target. In words: SPR, pH 7.4.
For assay [12] the target is unchanged. Nature of the assay: competition ELISA vs human IgG. Here is the method:
as §3
This is another data set of the same source.

Assay [13] shares this target. In words: SPR, pH 6; small-letter c (D-cysteine) at both Cys positions. Here is the method:
as §1, §2

B1: Peptide No. 114 (peptide)
peptide: QRFXTGHFGGLXPCNGP
modifications: Pen4; NMeTyr12; disulfide; C-terminal amide
Broadly, the Kd is a measure of binding affinity in units of concentration. A higher Kd goes with a looser complex. Molecule B1 displayed a Kd in assay [1] of 92000 nM.

B2: Peptide No. 41 (peptide)
peptide: QRF[Pen]TGHFG[dR]LYPCNGP-NH2
modifications: disulfide 4-14; N-terminus assumed
SMILES: CC(C)C[C@@H]1NC(=O)[C@@H](CCCNC(=N)N)NC(=O)CNC(=O)[C@H](Cc2ccccc2)NC(=O)[C@H](Cc2c[nH]cn2)NC(=O)CNC(=O)[C@H]([C@@H](C)O)NC(=O)[C@@H](NC(=O)[C@H](Cc2ccccc2)NC(=O)[C@H](CCCNC(=N)N)NC(=O)[C@@H](N)CCC(N)=O)C(C)(C)SSC[C@@H](C(=O)N[C@@H](CC(N)=O)C(=O)NCC(=O)N2CCC[C@H]2C(N)=O)NC(=O)[C@@H]2CCCN2C(=O)[C@H](Cc2ccc(O)cc2)NC1=O
As usually defined, the IC50 is the concentration that gives 50% inhibition. Regarding B2, in assay [2], the IC50 came out at 8100 nM. For the same molecule, the results for the Kd in assay [3] and in assay [4] were 830 nM and 8800 nM, respectively.

B3: Peptide No. 48 (peptide)
peptide: QRFXTGHFXGLYPCNGP
modifications: Pen4; D-Pro9; disulfide; C-terminal amide
The molecule B3 came in with an IC50 in assay [2] of 5000 nM. In addition, the Kd in [3] is 790 nM; in [4], 21000 nM.

B4: Peptide No. 147 (peptide)
peptide: RF[Pen]TGHFG[Sar]YPCNGP-NH2
modifications: disulfide 3-12; N-terminus assumed
SMILES: C[C@@H](O)[C@@H]1NC(=O)[C@@H](NC(=O)[C@H](Cc2ccccc2)NC(=O)[C@@H](N)CCCNC(=N)N)C(C)(C)SSC[C@@H](C(=O)N[C@@H](CC(N)=O)C(=O)NCC(=O)N2CCC[C@H]2C(N)=O)NC(=O)[C@@H]2CCCN2C(=O)[C@H](Cc2ccc(O)cc2)NC(=O)CN(C)C(=O)CNC(=O)[C@H](Cc2ccccc2)NC(=O)[C@H](Cc2c[nH]cn2)NC(=O)CNC1=O
notes: printed RF-Pen-TGHFG-Sar-YPCNGP (no Leu after Sar)
In assay [2], B4 displayed a half-inhibitory concentration (IC50) of 1000 nM. Moreover, the values for the Kd in [3] and in assay [4] were 58 nM and 350 nM, respectively.

B5: Peptide No. 43 (peptide)
peptide: QRFXTGHFGXLYPCNGP
modifications: Pen4; D-Ile10; disulfide; C-terminal amide
Turning to B5, the 50% inhibitory concentration (IC50) in assay [2] was 18000 nM. Moreover, the Kd was 2200 nM in [3] and 41000 nM in assay [4].

B6: Peptide No. 188 (peptide)
peptide: QRFXTGHFXXXYPCNGP
modifications: Pen4; D-Ala9; Sar10; NMeLeu11; disulfide; C-terminal amide
B6 came in with an IC50 in assay [5] of 6500 nM. Besides, binding in assay [6] was put at a Kd of 730 nM.

B7: Peptide No. 177 (peptide)
peptide: QRFVTGHFGXWYPANGP
modifications: D-Pro10; unbridged; C-terminal amide
For B7, in [2], the half-maximal inhibitory concentration (IC50) was 52000 nM. In addition, the dissociation constant Kd in assay [3] stood at 5800 nM; in [4], 96000 nM.

B8: Peptide No. 228 (peptide)
peptide: RF[Pen][NMeA]GHF[X1][NMeL]YPC-NH2
modifications: disulfide 3-12 (inferred)
In assay [7], B8 displayed an equilibrium dissociation constant (Kd) of 145 nM. This molecule also returned an IC50 in assay [8] of 1100 nM.

B9: Peptide No. 24 (peptide)
peptide: QRFCTGHFXXLYPCNGP
modifications: D-Ala9; D-Ala10; disulfide; C-terminal amide
In [2], B9 had an IC50 of 69000 nM. The results for the Kd in assay [3] and in [4] were 22000 nM and greater than 250000 nM, respectively.

B10: Peptide No. 187 (peptide)
peptide: QRFXTGHFGXXYPCNGP
modifications: Pen4; Sar10; NMeLeu11; disulfide; C-terminal amide
Take B10: the dissociation constant Kd in [9] worked out at 230 nM; in [3], 46 nM; in [4], 230 nM; in assay [6] it was 46 nM. Moreover, the IC50 in assay [2] and in assay [5] was 420 nM in each case.

B11: Peptide No. 29 (peptide)
peptide: QRFXTGHFGGLYPCNGP
modifications: D-Cys4; disulfide; C-terminal amide
In turn, B11 showed a Kd in [10] of 150000 nM.

B12: Peptide No. 235 (peptide)
peptide: RFXTGHFGXXYPC
modifications: Pen3; Sar9; NMeLeu10; disulfide; C-terminal amide
B12: the Kd in assay [9] was 170 nM; in assay [3], 31 nM; in [4] it was 170 nM; in [6], 31 nM. Besides, the IC50 in assay [2] and in [5] was 490 nM in each case.

B13: Peptide No. 265 (peptide)
peptide: RFXTGFFGXXYPC
modifications: Pen3; Sar9; NMeLeu10; disulfide; C-terminal amide
As to B13, the Kd amounted to 4200 nM in assay [11] and 3300 nM in assay [3].

B14: Peptide No. 255 (peptide)
peptide: RFXTGKFGXXYPC
modifications: Pen3; Sar9; NMeLeu10; disulfide; C-terminal amide
Turning to B14, the Kd in [11] came to 1100 nM; in assay [3], 1300 nM. Besides, the IC50 in assay [2] worked out at 40000 nM.

B15: Peptide No. 256 (peptide)
peptide: RFXTGRFGXXYPC
modifications: Pen3; Sar9; NMeLeu10; disulfide; C-terminal amide
B15: the Kd in assay [11] and in [3] was 500 nM each time. This molecule also came in with an IC50 in [2] of 5500 nM.

B16: Peptide No. 236 (peptide)
peptide: RFVTGHFGXXYPA
modifications: Sar9; NMeLeu10; unbridged; C-terminal amide
Regarding B16, the IC50 in [12] and in assay [2] was 37000 nM in each case. The equilibrium dissociation constant (Kd) in assay [4] came out at 9000 nM.

B17: Peptide No. 31 (peptide)
peptide: QRFXTGHFGGLYPXNGP
modifications: D-Cys4; D-Cys14; disulfide; C-terminal amide
With B17, the Kd in [13] came to 200000 nM. In assay [2], this molecule came in with a half-inhibitory concentration (IC50) greater than 500000 nM.

The values are drawn from patent US8906844B2 (SYNTONIX PHARMACEUTICALS, dated 2014).
